Test results reported in article PMC7263513 (bioRxiv, 2020).

B1: C146 (antibody, V domains shown)
VH: EVQLVESGGGLVKPGGSLRLSCAASGLTFTAYRMNWVRQAPGKGLEWLSSISNTNGDIYYADSVKGRFTISRDNAKNSLYLQMNSLRADDTAVYYCARDVASNYAYFDLWGQGTLVTVSS
VL: QSALTQPASVSGSPGQSITISCTGTSSDIGVYNYISWSQQHPGKAPKVMIYDVTNRPSGVSNRFSGSKSGNTASLTISGLQAEDEADYYCSSYRGSSTPYVFGTGTKVTVL
B2: C212 (antibody, V domains shown)
VH: QVQLVQSGAEVKKPGASVKVSCKASGYTVTGYYIHWVRQAPGQGLEWMGWISPNSGGTNYAQKFQGWVTMTRDMSITTAYMELSRLRSDDTAVYYCARERYFDLGGMDVWGQGTTVTVSS
VL: LTQPASVSGSPGQSITISCTGTSSDVGSYNLVSWYQQHPGKAPKLMIYEDSKRPSGVSNRFSGSKSGNTASLTISGLQAEDEADYYCCSYAGSSTRLFGGGTKLTVL
B3: C208 (antibody, V domains shown)
VH: EVQLVQSGAEVKKPGESLKISCKGSGYSFTSYWIGWVRQMPGKGLEWMGIIYPGDSDTRYSPSFQGQVTISADKSISTAYLKWSSLKASDSAMYYCARGPNLQNWFDPWGQGTLVTVSS
VL: EIVLTQSPGTLSLSPGERATLSCRASQSVSGSYLAWYQQRPGQAPRLLIYGASSRATGIPDRFSGSGSGTDFTLTISRLEPEDFAVYYCQQYGSSLTFGGGTKVEIK
B4: C211 (antibody, V domains shown)
VH: EVQLVESGGGLVQPGGSLRLSCAASEFTVSSNYMSWVRQAPGKGLEWVSVIYSGGSTFYADSVKGRFTISRDNSKNTLYLQMNSLRPEDTAVYYCARDYGDFYFDFWGQGTLVTVSS
VL: EIVMTQSPATLSVSPGERATLSCRASQSVSSNLAWYQQKPGQGPRLLIYGASTRATGIPARFSGSGSGTEFTLTISSLQSEDFAVYYCQQYNNWPRTFGQGTKVEIK
B5: C214 (antibody, V domains shown)
VH: QVQLVESGGGVVQPGRSLRLSCAASGFTFSSYGMHWVRQAPGKGLEWVAAIWYDGSNKHYADSVKGRFTISRDNSKNTLYLQMNSLRAEDTAVYYCARDVGRVTTWFDPWGQGTLVTVSS
VL: not shown
B6: C216 (antibody, V domains shown)
VH: EVQLVESGGGLVQPGGSLRLSCAASGFTFSSYDMHWVRQATGKGLEWVSAIGTAGDTYYPDSVKGRFTISRENAKNSLYLQMNSLRAGDTAVYYCARDRGSSGWYGWYFDLWGRGTLVTVSS
VL: not shown
B7: C215 (antibody, V domains shown)
VH: EVQLLESGGGLVQPGGSLRLSCAASGFTFSSYAMSWVRQAPGKGLEWVSAITDSGDGTFYADSVKGRFTISRDNSKNTLYLQMNSLRAEDTAVYYCASEEDYSNYVGWFDPWGQGTLVTVSS
VL: not shown

target: T1, SARS-CoV-2 receptor binding domain (RBD) (Severe acute respiratory syndrome …, UniProt P0DTC2); assay: ELISA

| Binder | binding result |
| --- | --- |
| B1 | no binding (tested: >1000 ng/ml) |
| B2 | no binding (tested: >1000 ng/ml) |
| B3 | no binding (tested: >1000 ng/ml) |

target: T1, SARS-CoV-2 receptor binding domain (RBD); assay: cell-based or functional assay

| Binder | IC50 of neutralisation of SARS-CoV-2 pseudovirus (293T_(ACE2) cells) |
| --- | --- |
| B4 | 0.0128 µg/mL |
| B5 | > 1 µg/mL |
| B6 | > 1 µg/mL |
| B7 | > 1 µg/mL |
